Reference: article PMC7854593, “Molecular mechanism for vitamin C-derived C^5-glyceryl-methylcytosine DNA modification catalyzed by algal TET homologue CMD1” (Nature Communications, 2021)
Numbering of substitutions follows the chain as printed.

Columns and labels:
MBP-fused CMD1 = molecular target: T1, MBP-fused CMD1 (Chlamydomonas reinhardtii, UniProt A0A2K3D5Z7); experiment: X-ray crystal structure, crystals soaked with sodium L-ascorbate; type: binding; details: Fe2+ in active site; pH 5.0-5.6 citrate; 400 mM soak; binary complex 7CY5 (2.20 A) and ternary complex with 5mC-DNA 7CY8 (2.40 A); lactone form, monodentate via C2-hydroxyl
T1 construct: full-length CMD1 with N-terminal MBP via alpha-helical linker and C-terminal His6, tags kept; expressed in E. coli; residues 509-532 disordered in apo crystal, C-terminal region partly degraded in crystals

CMD1 [1] = molecular target: T2, CMD1 (UniProt A0A2K3D5Z7 1-532); experiment: BLI; range over dsDNA1-4; BLI: 20 mM Tris-HCl pH 8.0, 50 mM NaCl, 0.1% Tween-20, 0.5% BSA, 25 C; biotin-DNA on streptavidin sensors, 1:1 fit; details: protein: recombinant; tags: His6-SUMO, cleaved with ULP1; label: 5'-biotin
CMD1 [2] = molecular target: T2, CMD1; experiment: BLI; range over dsDNA7-9; BLI: 20 mM Tris-HCl pH 8.0, 50 mM NaCl, 0.1% Tween-20, 0.5% BSA, 25 C; biotin-DNA on streptavidin sensors, 1:1 fit; details: protein: recombinant; tags: His6-SUMO, cleaved with ULP1; label: 5'-biotin
MBP-CMD1 [3] = molecular target: T3, MBP-CMD1 (UniProt A0A2K3D5Z7 1-532); experiment: crystal structure; Fe2+; BLI: 20 mM Tris-HCl pH 8.0, 50 mM NaCl, 0.1% Tween-20, 0.5% BSA, 25 C; biotin-DNA on streptavidin sensors, 1:1 fit; details: protein: recombinant; tags: N-terminal MBP via alpha-helical linker; C-terminal His6; 10 bp palindromic duplex, 3' overhang 4 nt on both strands
CMD1 [4] = molecular target: T2, CMD1; experiment: BLI; range over six structured DNAs; BLI: 20 mM Tris-HCl pH 8.0, 50 mM NaCl, 0.1% Tween-20, 0.5% BSA, 25 C; biotin-DNA on streptavidin sensors, 1:1 fit; details: protein: recombinant, tags: His6-SUMO, cleaved with ULP1, label: 5'-biotin
CMD1 [5] = molecular target: T2, CMD1; experiment: BLI; BLI: 20 mM Tris-HCl pH 8.0, 50 mM NaCl, 0.1% Tween-20, 0.5% BSA, 25 C; biotin-DNA on streptavidin sensors, 1:1 fit; details: protein: recombinant, tags: His6-SUMO, cleaved with ULP1, label: 5'-biotin
CMD1 [6] = molecular target: T2, CMD1; experiment: BLI; range over dsDNA5-6; BLI: 20 mM Tris-HCl pH 8.0, 50 mM NaCl, 0.1% Tween-20, 0.5% BSA, 25 C; biotin-DNA on streptavidin sensors, 1:1 fit; details: protein: recombinant; tags: His6-SUMO, cleaved with ULP1; label: 5'-biotin
MBP-CMD1 [7] = molecular target: T3, MBP-CMD1; experiment: BLI; BLI: 20 mM Tris-HCl pH 8.0, 50 mM NaCl, 0.1% Tween-20, 0.5% BSA, 25 C; biotin-DNA on streptavidin sensors, 1:1 fit; details: protein: recombinant; tags: N-terminal MBP via alpha-helical linker; C-terminal His6; label: 5'-biotin; 10 bp palindromic duplex, 3' overhang 4 nt on both strands

T2 sequence (A0A2K3D5Z7 whole entry): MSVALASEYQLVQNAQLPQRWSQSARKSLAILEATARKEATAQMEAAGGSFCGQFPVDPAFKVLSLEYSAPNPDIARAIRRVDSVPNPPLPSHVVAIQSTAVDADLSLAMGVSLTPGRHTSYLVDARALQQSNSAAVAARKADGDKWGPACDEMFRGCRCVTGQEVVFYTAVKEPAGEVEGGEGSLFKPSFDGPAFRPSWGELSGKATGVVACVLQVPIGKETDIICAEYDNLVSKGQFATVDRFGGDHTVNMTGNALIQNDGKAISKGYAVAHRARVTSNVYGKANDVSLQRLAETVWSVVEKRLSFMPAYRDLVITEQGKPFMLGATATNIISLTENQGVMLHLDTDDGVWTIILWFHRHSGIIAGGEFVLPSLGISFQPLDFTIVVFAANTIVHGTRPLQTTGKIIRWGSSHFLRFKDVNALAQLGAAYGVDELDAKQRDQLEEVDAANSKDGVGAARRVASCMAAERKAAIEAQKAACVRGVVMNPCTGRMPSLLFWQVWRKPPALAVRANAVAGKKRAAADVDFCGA
T3 sequence (A0A2K3D5Z7 whole entry): as above
T1 sequence (A0A2K3D5Z7 whole entry, the tested form may be a part): as the sequence (A0A2K3D5Z7 whole entry) above

O=C1O[C@H]([C@@H](O)CO)C(O)=C1O [VC]
X-ray crystal structure, crystals soaked with sodium L-ascorbate (MBP-fused CMD1): crystals of CMD1 in complex with VC were obtained by soaking the apo CMD1 crystals

B1: dsDNA2 (40 bp, AT-rich) (dsDNA)
DNA 1: ATACTTACGAATCTGAACTTAGATCCTAATATACATTCTA
DNA 2: TAGAATGTATATTAGGATCTAAGTTCAGATTCGTAAGTAT
Kd (CMD1 [1]): ~2220 nM

B2: dsDNA8 (10-30 bp) (dsDNA)
DNA 1: ACTTACTGCCAATATAGTAT
DNA 2: ATACTATATTGGCAGTAAGT
Kd (CMD1 [2]): ~1930 nM

B3: 14-nt DNA (crystal), unmodified (dsDNA)
DNA 1: CCCGCGCGGGATGT
DNA 2: CCCGCGCGGGATGT
binding result (MBP-CMD1 [3]): binds

B4: dsDNA4 (40 bp, GC-rich) (dsDNA)
DNA 1: GACATCGGCGCGGGGTTCAGCCCCGGCCGTATTGGGGCTC
DNA 2: GAGCCCCAATACGGCCGGGGCTGAACCCCGCGCCGATGTC
Kd (CMD1 [1]): ~2220 nM

B5: dsDNA3 (40 bp, GC-rich) (dsDNA)
DNA 1: GCTGGCCCTGACATGGGTGCCAGCGTAGTGCGCGTAGCGC
DNA 2: GCGCTACGCGCACTACGCTGGCACCCATGTCAGGGCCAGC
Kd (CMD1 [1]): ~2220 nM

B6: bubble DNA (structured_DNA)
DNA 1: GCTTTAACTTACATACCCCCCCCCCTAGTATGCGTATTGC
DNA 2: GCAATACGCATACTATTTTTTTTTTTATGTAAGTTAAAGC
Kd (CMD1 [4]; bubble): ~1380 nM

TTTTTTCTTTTTTCTTTTTTCTTTTTTCTTTTTTCTTTTT (ssDNA) [ssDNA (40 nt)]
Kd (CMD1 [5]): 2770 nM

B7: Y-DNA (structured_DNA)
DNA 1: GCTTTAACTTACATAAATGCCAATATAGTATGCGTATTGC
DNA 2: TACCGCATACGCCTATATTGGCATTTATGTAAGTTAAAGC
Kd (CMD1 [4]; fork): ~1380 nM

B8: dsDNA6 (40 bp, 5mC) (dsDNA)
DNA 1: B7 DNA 1
DNA 2: B6 DNA 2 with T17A, T20G, T21G, T22C, T23A
modifications: one or two 5mC
Kd (CMD1 [6]): ~2400 nM

B9: dsDNA1 (40 bp, AT-rich) (dsDNA)
DNA 1: B7 DNA 1
DNA 2: B6 DNA 2 with T17A, T20G, T21G, T22C, T23A
Kd (CMD1 [1]): ~2220 nM

B10: 5'-flap DNA (structured_DNA)
DNA 1: B7 DNA 1
DNA 2: B7 DNA 2
DNA 3: GCAATACGCATA
Kd (CMD1 [4]; 5' flap): ~1380 nM

B11: dsDNA5 (40 bp, 5mC) (dsDNA)
DNA 1: B7 DNA 1
DNA 2: B6 DNA 2 with T17A, T20G, T21G, T22C, T23A
modifications: one or two 5mC
Kd (CMD1 [6]): ~2400 nM

B12: 3'-flap DNA (structured_DNA)
DNA 1: B7 DNA 1
DNA 2: B7 DNA 2
DNA 3: GCGTATGCGGTA
Kd (CMD1 [4]; 3' flap): ~1380 nM

B13: dsDNA9 (10-30 bp) (dsDNA)
DNA 1: AACTTACATAAATGCCAATATAGTATGCGT
DNA 2: ACGCATACTATATTGGCATTTATGTAAGTT
Kd (CMD1 [2]): ~1930 nM

B14: 14-nt 5mC-DNA (BLI) (dsDNA)
DNA 1: CCCGCGCGGGATGT
DNA 2: CCCGCGCGGGATGT
modifications: 5mC at position 3 of both strands
Kd (CMD1 [5]; 10 bp palindromic duplex, 3' overhang 4 nt on both strands): 2010 ± 110 nM
Kd (MBP-CMD1 [7]): 810 ± 30 nM
